Source: article PMC6026032 (Brain research, 2018)

Biological target: the molecule itself
Test: native gel or EMSA

B1: HA-tagged Cbln1 (wild type) (ligand, mouse, UniProt Q9R171 22-193, looked up)
chain: QNETEPIVLEGKCLVVCDSNPTSDPTGTALGISVRSGSAKVAFSAIRSTNHEPSEMSNRTMIIYFDQVLVNIGNNFDSERSTFIAPRKGIYSFNFHVVKVYNRQTIQVSLMLNGWPVISAFAGDQDVTREAASNGVLIQMEKGDRAYLKLERGNLMGGWKYSTFSGFLVFPL
modifications: N-linked glycans at N23 and N79; sialylated
For B1, which “stoichiometry N” value is on record?
The value was 6.

B2: HA-tagged Cbln1 N23Q (ligand, mouse, UniProt Q9R171 22-193, looked up)
chain: QQETEPIVLEGKCLVVCDSNPTSDPTGTALGISVRSGSAKVAFSAIRSTNHEPSEMSNRTMIIYFDQVLVNIGNNFDSERSTFIAPRKGIYSFNFHVVKVYNRQTIQVSLMLNGWPVISAFAGDQDVTREAASNGVLIQMEKGDRAYLKLERGNLMGGWKYSTFSGFLVFPL
modifications: N-linked glycan at N79 only (monoglycosylated)
For B2, which “stoichiometry N” value is on record?
Its value is 6.

B3: HA-tagged Cbln1 N79Q (ligand, mouse, UniProt Q9R171 22-193, looked up)
chain: QNETEPIVLEGKCLVVCDSNPTSDPTGTALGISVRSGSAKVAFSAIRSTNHEPSEMSQRTMIIYFDQVLVNIGNNFDSERSTFIAPRKGIYSFNFHVVKVYNRQTIQVSLMLNGWPVISAFAGDQDVTREAASNGVLIQMEKGDRAYLKLERGNLMGGWKYSTFSGFLVFPL
modifications: N-linked glycan at N23 only (monoglycosylated)
How did the “stoichiometry N” value turn out when B3 was run?
Its value is 6.

B4: HA-tagged Cbln2 (wild type) (ligand, mouse, UniProt Q8BGU2 52-224, looked up)
chain: QNDTEPIVLEGKCLVVCDSSPSGDGAVTSSLGISVRSGSAKVAFSATRSTNHEPSEMSNRTMTIYFDQVLVNIGNHFDLASSIFVAPRKGIYSFSFHVVKVYNRQTIQVSLMQNGYPVISAFAGDQDVTREAASNGVLLLMEREDKVHLKLERGNLMGGWKYSTFSGFLVFPL
modifications: N-linked glycans at N53 and N110
With B4 as the protein, how does the “stoichiometry N” value read?
The value was 6.

B5: HA-tagged Cbln2 N53Q (ligand, mouse, UniProt Q8BGU2 52-224, looked up)
chain: QQDTEPIVLEGKCLVVCDSSPSGDGAVTSSLGISVRSGSAKVAFSATRSTNHEPSEMSNRTMTIYFDQVLVNIGNHFDLASSIFVAPRKGIYSFSFHVVKVYNRQTIQVSLMQNGYPVISAFAGDQDVTREAASNGVLLLMEREDKVHLKLERGNLMGGWKYSTFSGFLVFPL
modifications: N-linked glycan at N110 only (monoglycosylated)
How did the “stoichiometry N” value turn out when B5 was run?
Its value is 6.

B6: HA-tagged Cbln2 N110Q (ligand, mouse, UniProt Q8BGU2 52-224, looked up)
chain: QNDTEPIVLEGKCLVVCDSSPSGDGAVTSSLGISVRSGSAKVAFSATRSTNHEPSEMSQRTMTIYFDQVLVNIGNHFDLASSIFVAPRKGIYSFSFHVVKVYNRQTIQVSLMQNGYPVISAFAGDQDVTREAASNGVLLLMEREDKVHLKLERGNLMGGWKYSTFSGFLVFPL
modifications: N-linked glycan at N53 only (monoglycosylated)
With B6 as the protein, how does the “stoichiometry N” value read?
The value was 6.

B7: HA-tagged Cbln4 (wild type) (ligand, mouse, UniProt Q8BME9 25-198, looked up)
chain: QNDTEPIVLEGKCLVVCDSNPATDSKGSSSSPLGISVRAANSKVAFSAVRSTNHEPSEMSNKTRIIYFDQILVNVGNFFTLESVFVAPRKGIYSFSFHVIKVYQSQTIQVNLMLNGKPVISAFAGDKDVTREAATNGVLLYLDKEDKVYLKLEKGNLLGGWQYSTFSGFLVFPL
modifications: N-linked glycans at N26 and N85; sialylated
With B7 as the protein, how does the “stoichiometry N” value read?
The value was 6.

B8: HA-tagged Cbln4 N85Q (ligand, mouse, UniProt Q8BME9 25-198, looked up)
chain: QNDTEPIVLEGKCLVVCDSNPATDSKGSSSSPLGISVRAANSKVAFSAVRSTNHEPSEMSQKTRIIYFDQILVNVGNFFTLESVFVAPRKGIYSFSFHVIKVYQSQTIQVNLMLNGKPVISAFAGDKDVTREAATNGVLLYLDKEDKVYLKLEKGNLLGGWQYSTFSGFLVFPL
modifications: N-linked glycan at N26 only (monoglycosylated)
Which “stoichiometry N” value does the source give for B8 here?
The value was 6.
